Results: the RNAGym collection of RNA variant scans (doi:10.7554/elife.80360)

B1: Hammerhead Ribozyme (parent)
chain: ACCGGAUGUGCUUUCCGGUCUGAUGAGUCCGUGAGGACGAAACAG

Variants of: B1
Experiment: self-cleavage, relative activity (ratio to wild type); higher = more cleavage; co-transcriptional
U24C U28A showed a self-cleavage of 0.614.
With U24C U28G the self-cleavage was 0.99.
Variant U24C U28C has a self-cleavage of 1.06.
In the case of A23U U24G, the self-cleavage is reported as 0.251.
In the case of A23U U24A, the self-cleavage is reported as 0.58.
A23U U24C showed a self-cleavage of 0.45.
U24C A42G showed a self-cleavage of 0.228.
U24C A42U showed a self-cleavage of 0.286.
With U24C A42C the self-cleavage was 0.316.
U24G G33U gave a self-cleavage of 1.02.
In the case of U24G G33A, the self-cleavage is reported as 1.18.
Work on U24G G33C yielded a self-cleavage of 0.81.
In the case of U24G, the self-cleavage is reported as 1.03.
In the case of U24C, the self-cleavage is reported as 0.959.
Variant U24A has a self-cleavage of 1.03.
Variant U24G C30A has a self-cleavage of 0.626.
For U24G C30G, the self-cleavage was 0.727.
For U24G C30U, the self-cleavage was 0.996.
Variant U24G C29G has a self-cleavage of 0.781.
With U24G C29U the self-cleavage was 0.987.
Variant U24G C29A has a self-cleavage of 0.447.
Work on U24C G31A yielded a self-cleavage of 0.924.
U24C G31U showed a self-cleavage of 0.982.
In the case of U24C G31C, the self-cleavage is reported as 1.02.
Work on U24C A26G yielded a self-cleavage of 0.401.
U24C A26C showed a self-cleavage of 0.609.
Variant U24C A26U has a self-cleavage of 0.559.
With A23U G31U the self-cleavage was 0.477.
A23U G31A gave a self-cleavage of 0.631.
For A23U G31C, the self-cleavage was 0.393.
With A23G U32A the self-cleavage was 0.387.
Variant A23G U32C has a self-cleavage of 0.375.
Variant A23G U32G has a self-cleavage of 0.366.
A23U G35A gave a self-cleavage of 0.471.
In the case of A23U G35U, the self-cleavage is reported as 0.37.
A23U G35C showed a self-cleavage of 0.356.
Work on G25A G27C yielded a self-cleavage of 0.355.
For G25A G27U, the self-cleavage was 0.314.
Variant G25A G27A has a self-cleavage of 0.306.
A23U C30U showed a self-cleavage of 0.402.
Work on A23U C30A yielded a self-cleavage of 0.463.
A23U C30G showed a self-cleavage of 0.345.
U24C G45U showed a self-cleavage of 0.669.
Work on U24C G45C yielded a self-cleavage of 0.641.
U24C G45A gave a self-cleavage of 0.465.
In the case of G25A C29A, the self-cleavage is reported as 0.348.
G25A C29U showed a self-cleavage of 0.3.
With G25A C29G the self-cleavage was 0.347.
Variant G25A U32G has a self-cleavage of 0.419.
With G25A U32A the self-cleavage was 0.352.
With G25A U32C the self-cleavage was 0.417.
Work on U24A A41G yielded a self-cleavage of 0.473.
In the case of U24A A41U, the self-cleavage is reported as 0.279.
U24A A41C gave a self-cleavage of 0.371.
Variant A23G U24A has a self-cleavage of 0.645.
A23G U24C gave a self-cleavage of 0.488.
A23G U24G showed a self-cleavage of 0.283.
U24C C38A showed a self-cleavage of 0.676.
In the case of U24C C38G, the self-cleavage is reported as 0.601.
In the case of U24C C38U, the self-cleavage is reported as 0.901.
U24A G31C gave a self-cleavage of 0.814.
Work on U24A G31U yielded a self-cleavage of 0.927.
In the case of U24A G31A, the self-cleavage is reported as 1.15.
U24G A40U showed a self-cleavage of 0.308.
Variant U24G A40G has a self-cleavage of 0.392.
U24G A40C showed a self-cleavage of 0.421.
Work on A23U A26U yielded a self-cleavage of 0.374.
For A23U A26C, the self-cleavage was 0.379.
A23U A26G gave a self-cleavage of 0.304.
U24A A42G gave a self-cleavage of 0.24.
For U24A A42U, the self-cleavage was 0.354.
With U24A A42C the self-cleavage was 0.363.
G25A C43G gave a self-cleavage of 0.338.
In the case of G25A C43U, the self-cleavage is reported as 0.341.
In the case of G25A C43A, the self-cleavage is reported as 0.294.
Variant U24A A37U has a self-cleavage of 0.771.
Variant U24A A37G has a self-cleavage of 1.09.
Work on U24A A37C yielded a self-cleavage of 1.03.
With U24C G33A the self-cleavage was 1.36.
U24C G33C showed a self-cleavage of 1.15.
U24C G33U gave a self-cleavage of 0.854.
In the case of U24A U32A, the self-cleavage is reported as 0.859.
With U24A U32G the self-cleavage was 0.644.
U24A U32C gave a self-cleavage of 0.569.
G25A G31A showed a self-cleavage of 0.347.
G25A G31C showed a self-cleavage of 0.326.
For G25A G31U, the self-cleavage was 0.416.
U24G G39U gave a self-cleavage of 0.303.
In the case of U24G G39A, the self-cleavage is reported as 0.327.
For U24G G39C, the self-cleavage was 0.266.
With A23U G39A the self-cleavage was 0.331.
In the case of A23U G39U, the self-cleavage is reported as 0.315.
A23U G39C showed a self-cleavage of 0.341.
U24A G35C gave a self-cleavage of 0.851.
In the case of U24A G35U, the self-cleavage is reported as 0.791.
U24A G35A gave a self-cleavage of 0.873.
For G25A C38G, the self-cleavage was 0.33.
G25A C38U gave a self-cleavage of 0.317.
Variant G25A C38A has a self-cleavage of 0.379.
For G25A G33U, the self-cleavage was 0.45.
With G25A G33C the self-cleavage was 0.438.
For G25A G33A, the self-cleavage was 0.379.
A23U G33U showed a self-cleavage of 0.551.
Variant A23U G33C has a self-cleavage of 0.262.
With A23U G33A the self-cleavage was 0.524.
Work on A23G U28A yielded a self-cleavage of 0.329.
With A23G U28C the self-cleavage was 0.327.
A23G U28G showed a self-cleavage of 0.386.
In the case of A23U A34U, the self-cleavage is reported as 0.28.
In the case of A23U A34C, the self-cleavage is reported as 0.345.
A23U A34G showed a self-cleavage of 0.358.
In the case of U24C A37G, the self-cleavage is reported as 0.9.
Work on U24C A37U yielded a self-cleavage of 0.768.
With U24C A37C the self-cleavage was 1.02.
With G25A U28G the self-cleavage was 0.313.
G25A U28A gave a self-cleavage of 0.342.
For G25A U28C, the self-cleavage was 0.355.
Work on G25A C30G yielded a self-cleavage of 0.305.
G25A C30U showed a self-cleavage of 0.331.
Variant G25A C30A has a self-cleavage of 0.369.
For G25A A37G, the self-cleavage was 0.351.
Variant G25A A37U has a self-cleavage of 0.272.
Variant G25A A37C has a self-cleavage of 0.301.
Variant A23U U28G has a self-cleavage of 0.36.
Variant A23U U28A has a self-cleavage of 0.375.
For A23U U28C, the self-cleavage was 0.356.
U24A G45A gave a self-cleavage of 0.75.
In the case of U24A G45C, the self-cleavage is reported as 0.639.
With U24A G45U the self-cleavage was 0.832.
In the case of A23U C29G, the self-cleavage is reported as 0.345.
Work on A23U C29U yielded a self-cleavage of 0.322.
A23U C29A gave a self-cleavage of 0.352.
Variant U24A G33C has a self-cleavage of 1.21.
In the case of U24A G33U, the self-cleavage is reported as 0.78.
U24A G33A showed a self-cleavage of 1.
In the case of A23U A40G, the self-cleavage is reported as 0.237.
In the case of A23U A40U, the self-cleavage is reported as 0.371.
Work on A23U A40C yielded a self-cleavage of 0.348.
U24G U32C showed a self-cleavage of 0.858.
U24G U32G showed a self-cleavage of 0.405.
U24G U32A showed a self-cleavage of 1.08.
Work on A23U C38U yielded a self-cleavage of 0.341.
Work on A23U C38A yielded a self-cleavage of 0.381.
For A23U C38G, the self-cleavage was 0.357.
Variant U24A G36U has a self-cleavage of 0.618.
In the case of U24A G36A, the self-cleavage is reported as 0.669.
Variant U24A G36C has a self-cleavage of 0.362.
A23U G45C showed a self-cleavage of 0.42.
In the case of A23U G45A, the self-cleavage is reported as 0.336.
In the case of A23U G45U, the self-cleavage is reported as 0.461.
With U24G G25A the self-cleavage was 0.494.
For U24G G25C, the self-cleavage was 0.294.
U24G G25U showed a self-cleavage of 0.338.
U24G A37G gave a self-cleavage of 0.659.
U24G A37C showed a self-cleavage of 1.05.
U24G A37U showed a self-cleavage of 0.854.
Work on G25A A44G yielded a self-cleavage of 0.64.
For G25A A44U, the self-cleavage was 0.343.
Variant G25A A44C has a self-cleavage of 0.38.
U24C G25C showed a self-cleavage of 0.324.
U24C G25U showed a self-cleavage of 0.305.
For U24C G25A, the self-cleavage was 0.363.
In the case of U24C C30U, the self-cleavage is reported as 1.14.
Variant U24C C30G has a self-cleavage of 0.613.
Variant U24C C30A has a self-cleavage of 0.904.
With U24A A34U the self-cleavage was 0.849.
For U24A A34G, the self-cleavage was 0.777.
